US20150141335A1, “THERAPEUTIC USES OF FIBROBLAST GROWTH FACTOR 21 PROTEINS” (Eli Lilly and Company, published 2015)

Legend:
[1] = molecular target: T1, wild type mouse βKlotho (mouse, UniProt Q99N32); test: cell-based or functional assay
T1 sequence: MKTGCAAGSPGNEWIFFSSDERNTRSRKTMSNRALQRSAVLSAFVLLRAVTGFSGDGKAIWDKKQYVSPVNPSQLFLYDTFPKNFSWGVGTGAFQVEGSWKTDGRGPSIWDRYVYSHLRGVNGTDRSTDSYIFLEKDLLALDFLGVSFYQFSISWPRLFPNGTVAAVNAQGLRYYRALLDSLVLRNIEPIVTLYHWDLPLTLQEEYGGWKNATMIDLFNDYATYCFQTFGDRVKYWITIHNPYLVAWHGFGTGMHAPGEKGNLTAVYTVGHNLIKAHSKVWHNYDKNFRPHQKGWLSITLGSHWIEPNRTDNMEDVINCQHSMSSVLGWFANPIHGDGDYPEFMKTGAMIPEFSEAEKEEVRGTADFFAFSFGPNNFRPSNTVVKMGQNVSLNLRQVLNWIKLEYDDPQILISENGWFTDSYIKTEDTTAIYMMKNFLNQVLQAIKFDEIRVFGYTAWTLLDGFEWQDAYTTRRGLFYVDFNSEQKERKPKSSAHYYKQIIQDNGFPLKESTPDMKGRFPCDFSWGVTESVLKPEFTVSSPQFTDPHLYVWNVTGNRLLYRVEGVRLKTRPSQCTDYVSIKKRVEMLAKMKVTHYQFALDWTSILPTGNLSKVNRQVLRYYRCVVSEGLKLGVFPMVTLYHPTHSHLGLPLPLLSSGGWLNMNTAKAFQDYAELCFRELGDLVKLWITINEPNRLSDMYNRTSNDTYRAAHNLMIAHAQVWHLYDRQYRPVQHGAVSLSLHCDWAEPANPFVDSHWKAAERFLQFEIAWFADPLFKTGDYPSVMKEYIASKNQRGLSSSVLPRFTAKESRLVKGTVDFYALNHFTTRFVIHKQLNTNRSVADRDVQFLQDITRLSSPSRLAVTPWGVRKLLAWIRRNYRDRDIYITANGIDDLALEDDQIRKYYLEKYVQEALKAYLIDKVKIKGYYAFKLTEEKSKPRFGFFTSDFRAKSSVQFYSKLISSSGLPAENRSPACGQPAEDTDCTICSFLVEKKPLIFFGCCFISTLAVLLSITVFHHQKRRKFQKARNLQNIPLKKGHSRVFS

[2] = molecular target: human βKlotho (human, UniProt Q86Z14); test: cell-based or functional assay

B1: FGF21 protein of SEQ ID NO: 1 (ligand)
chain: HPIPDSSPLLQFGGQVRQRYLYTDDAQQTECHLEIREDGTVGCAADQSPESLLQLKALKPGVIQILGVKTSRFLCQRPDGALYGSLHFDPEACSFREDLLEDGYNVYQSEAHGLPLHLPGDKSPHRKPAPRGPARFLPLPGLPPALPEPPGILAPQPPDVGSSDPLRLVEPSQLLSPSFLG
glucose uptake (2-deoxy-D-(14C) glucose) in 3T3-L1-βKlotho fibroblasts, in vitro potency (EC50) [1]: 0.026 nM
SRE driven luciferase in 293-βKlotho-SRE luc cells, in vitro potency (EC50) [2]: 0.25 nM
